These are literature values, as cited in patent publication US8013186B2, “Haloalkyl containing compounds as cysteine protease inhibitors” (Virobay, Inc., priority 2004, dated 2011).

The conditions of this data set: in clinical trials.

“OKT3: murine monoclonal antibody directed towards CD-3 domain of activated T-cells”: the “patients administered OKT3 who produce antibodies versus the therapy” value is reported as 20-40%.
